Experimental data taken from the DeepSol protein solubility set.

Experiment: soluble on expression in E. coli; label from the status in PepcDB or PDB records

Row | Sequence | soluble on expression in E. coli
1 | MKMKKITAMSMAALMAATMIPSVPVMADGGGKVYYLNFKPEQDEAWQNLAKAYTEETGTDVTVVTAASGQYETTLQSEMAKSDAPTLFQVNGPVGLKNWKDYCYDLKDADITKELTSDAYELKDGDAVAGIAYVIESYGLITNKTLLEKAGYTLDDIKSFDDLKKVADDIQARKDEIGVKGAFTSAGMDGSSDWRFKTHLANLPIYYEYKADGIDDTEAIKGTYLDQYKNVFDLYITDSTCDGSELSAKTADDSRNEFVNGDAVFYQNGSWEYAELAKTYSDDELAMIPIYFGVDDENEGLATGTENYWCVNKNASEEDVQATLDFMNWCVTSEAGTKSMSEDMGFTIPFKTAVAPTNVFVKQDAEYTEAGLTPVSWNFTTMPSEEWKNGLGTALTAYAAGTGDWDAVVSAFVDGWATEKALSE | not soluble
2 | MSLDMKTTHTSLPFAGHTLHFVEFDPASFREQDLLWLPHYAQLQHAGRKRKTEHLAGRIAAIYALREYGYKCVPAIGELRQPVWPAGVYGSISHCGTTALAVVSRQPIGIDIEEIFSAQTARELTDNIITPAEHKRLADCGLAFPLALTLAFSAKESAFKASEIQTDADFLDYQIISRNKQQVIIHRENEMFAVHWQIKEKIVITLCQHDEGHHHHHH | soluble
3 | MAGDPMFKKRLNKDKINDCYTWEEELPDGSYDMGFHGNLNHMEKGKSGYVTHKQLDKKLEVFKQDLLVELSEKFVTKEEFRAQGKQIKELQIEQKAQGKTLQLILEALQGINKRLDKLESKLEHHHHHH | soluble
4 | MGSDKIHHHHHHMKKIGIIGGGQLGKMMTLEAKKMGFYVIVLDPTPRSPAGQVADEQIVAGFFDSERIEDLVKGSDVTTYDLEHIDVQTLKKLYNEGYKIHPSPYTLEIIQDKFVQKEFLKKNGIPVPEYKLVKDLESDVREFGFPVVQKARKGGYDGRGVFIIKNEKDLENAIKGETYLEEFVEIEKELAVMVARNEKGEIACYPVVEMYFDEDANICDTVIAPARIEEKYSKIAREIATSVVEALEGVGIFGIEMFLTKQGEILVNEIAPRPHNSGHYTIEACVTSQFEQHIRAIMNLPLGSTELLIPAVMVNLLGEEGYYGKPALIGLEEALAIEGLSLHFYGKKETRPYRKMGHFTVVDRDVERALEKALRAKKILKVVSEEGAMCQG | not soluble
5 | MKYVDGFVVAVPADKKDAYREMAAKAAPLFKEFGALRIVECWASDVPDGKVTDFRMAVKAEENEEVVFSWIEYPSKEVRDAANQKMMSDPRMKEFGESMPFDGKRMIYGGFESIIDE | soluble
6 | MGSDKIHHHHHHMCRWLAYSGRPIFLDSLVTQPSHSLVAQSLHSQLNVSSAGVLLSTNGDGFGIGWYHKRPEPGVFKDDKPAWHDENLKNLCHQVKSHIFFAHIRATTTGDVQRTNCHPFQYKNWLFQHNGHVSHFDKIRRELQLEIAPELYPHLRGTTDSETFFLLALTYGLMEQPKQAMQKMVRRVITALEGVDKAGVLNLSCALSDGEKLFILRFAHNEAAMTQFYSADTDCFHEFNGQCNPIPNGSLVVVSEPLDKASDKWTSIPTNTFTSIIKNRVHSEVFL | not soluble
7 | MGSDKIHHHHHHMIQITPFLDSKRKTPLYVQLYQYIKEGIESGQLKSDTFLPSIRELALHLRVSKNTVEGAYQQLIAEGYVESIPRVGLKILELEATFLCDKGGKQLQNVTMGEIQREHKSIEFDFVYGEIDTAHLPLKVWKRHVQEVLKGASEELLMYGDPFGDWHLRQELSHYLLQSRGVSCRPEQVVITAGTQHAVSLLCQLLSLHGSTVAFEDPGYNGVRSVFINQGCRIAPIPIEADGLSLSRLHESHANIVYVTPSHQLPCGMILPVHKRSLLLEWAYEHEGYIVEDDYDSEFRYQGQPIPALKALDQNEKVIYLGTFSKSFLPSIRVSYMVLPGELVPLYQQKLANYNQAASQLIQRALYTFIKDGDFQRHIRRMKKVYQSKHHTLLKSVKTYLGDRVTVIGEKSGLHVLLNVPGREDHELIEKAMACGVKVYSTKTFWYNPKNQCSSFIMLGFGKLSEEAIKKGIRRLQQAWF | not soluble
8 | MLSFVIPAHDEAALIGDTLQCLHACAQAMQLDHEVIVVADACEDATAAIARSHGAQVLEVLEVQLRHIAATRNAGAQAAQGEHLLFLDADTSINPQVVGAALAALDAGAVGGGARVHLQGKRVWSERVAQAVFGWFFRVSGIAPGCFLFCTRAAFVSAGGFDTRYYAGEDVALSRALARCGRFVILRQTVHTSDRKLRSFSKREHLGLLLRFLWRGRRMLQTRDALGFWYQRRRLEHHHHHH | not soluble
9 | MDAEPKRKFGVVVVGVGRAGSVRLRDLKDPRSAAFLNLIGFVSRRELGSLDEVRQISLEDALRSQEIDVAYICSESSSHEDYIRQFLQAGKHVLVEYPMTLSFAAAQELWELAAQKGRVLHEEHVELLMEEFEFLRREVLGKELLKGSLRFTASPLEEERFGFPAFSGISRLTWLVSLFGELSLISATLEERKEDQYMKMTVQLETQNKGLLSWIEEKGPGLKRNRYVNFQFTSGSLEEVPSVGVNKNIFLKDQDIFVQKLLDQVSAEDLAAEKKRIMHCLGLASDIQKLCHQKK | soluble
10 | MGSDKIHHHHHHMNPEFIHGATEIETTNRGLRPHRLSKEIVERYCDPQFSAMERQPSGVRVVCRTTATSVTLTTYSTRVVYLDSGRPGGKIDVLIDGAPTSSTPTSGGETTEVNFITGATERRLKDPQVLTVDGLSEQEKVVEFWLPHNEEIEVISLKANAALNTVEDTRPVWINYGSSISHGSVATAPTKIWPAIVAQSKNYNLRNFGFGGSAMLDPFMARLIRDTPADLITLEIGINIVNGDVMRRRGLEAAVDGFINTIRDGHPTTPIKIVSPFYCPIHEKTPGPGAFDTSSFGSGQIRFIATGEPDEHGRLTLEMVREVLEGFVEKQKDPHLTYVDGASLYQASDAPLLDNLHPDEASHALIAQRLLKQL | not soluble
11 | MSAASTTSTPAAAAVAPQQPESLYRVVQTLGEGAFGEVLLIVNTKNPEVAAAMKKINIANKSKDFIDNIRKEYLLQKRVSAVGHDNVIRMIGMRNDPQFYYLFLEYADGGELFDKIEPDCGMSPVFAQFYFKQLICGLKFIHDNDVVHRDIKPENLLLTGTHVLKISDFGMATLYRNKGEERLLDLSCGTIPYAAPELCAGKKYRGPPVDVWSSGIVLIAMLTGELPWDRASDASQSYMGWISNTSLDERPWKKIDVRALCMLRKIVTDKTDKRATIEQIQADPWYQHNFGQVETPNGRPLKRARNNDENITCTQQAECSAKRRHLETPNEKSTLAERQNASFSQPTKTEDLLLTQHIDMSQTNSNLLQRMVCRMTRFCVVTDIRSTYQKVARASEHAGFGVRETDDYRLLVTWREVSMMVSLYTMGDIPDKPRVMVDFRRSRGDGIQFKKMFMDVRNRMHEWICTDGNNWLANLGYVPRNPQIVNGGGVNVEHSASSINVDV | not soluble
12 | MIDYTAAGFTLLQGAHLYAPEDRGICDVLVANGKIIAVASNIPSDIVPNCTVVDLSGQILCPGFIDQHVHLIGGGGEAGPTTRTPEVALSRLTEAGVTSVVGLLGTDSISRHPESLLAKTRALNEEGISAWMLTGAYHVPSRTITGSVEKDVAIIDRVIGVKCAISDHRSAAPDVYHLANMAAESRVGGLLGGKPGVTVFHMGDSKKALQPIYDLLENCDVPISKLLPTHVNRNVPLFEQALEFARKGGTIDITSSIDEPVAPAEGIARAVQAGIPLARVTLSSDGNGSQPFFDDEGNLTHIGVAGFETLLETVQVLVKDYDFSISDALRPLTSSVAGFLNLTGKGEILPGNDADLLVMTPELRIEQVYARGKLMVKDGKACVKGTFETA | soluble
13 | MRIGHGFDVHAFGGEGPIIIGGVRIPYEKGLLAHSDGDVALHALTDALLGAAALGDIGKLFPDTDPAFKGADSRELLREAWRRIQAKGYTLGNVDVTIIAQAPKMLPHIPQMRVFIAEDLGCHMDEVNVKATTTEKLGFTGRGEGIACEAVALLMKAAK | not soluble
14 | MMSACSDFLDREPLTTPNSETFLSNASAVNNYINGLYIALPSFGTYDMGVRGEEKNSDNIVAEVYDKRLNGELQENGGGTTEWQKGYQNLRNVNYFFEYYKVPETEETKDVLSMKGEAYFFRAYWHFYLLTRFGSIPVMDRFWDGNATVGGLQIPPRDRSAVAQFILDDLNTAKGLLHSRSQYKGLRVCKEAAIIMAMRVALYEGTWEKYHKGTDFAAAEDKSADLLGQVLTLGDELFGMGLALNTKATDKNAVNIEDAYAHIFNSKDLSDMTEVVFWKKYSIADGVIHNLSSNLGAGYVDNSGPAGLSQSLVDNYLNADGTPINPADGIFKDFNLTFKGRDGRLLATVMHSNCKFKSTSPESKSKAMLVEEYSEENKQIVRPPYLTEGGPARNATGYHIRMSIDTTYVSGQGETSLPVIRYAEALLAYAEAAEELGKCTPAVLEKTLKPLRERAGVTYKDPSEIDPNFTDFGYTISANLQEIRRERRAELALQGFRLDDLMRWRAHKLIQGKRGTGAYFGTDGVLYKAFDPKNAADLKTILTTDGWLDPQKELLPRGYQFDANRDYLLPVPPSEISLNHELKQNPGWQRK | not soluble
15 | MGHHHHHHSHRIVILQGAAGIGKSTLARQVKEAWGRGQLYGDRFQHVFYFSCRELAQSKVVSLAELIGKDGTATPAPIRQILSRPERLLFILDGVDEPGWVLQEPSSELCLHWSQPQPADALLGSLLGKTILPEASFLITARTTALQNLIPSLEQARWVEVLGFSESSRKEYFYRYFT | not soluble
16 | MKNKNDQHLRLQQQIIHYRSEAASCRQQVQQLEAELAKEKMRSAYLKEKLREAETTNVETYKKKIAALERQLLLCEIALEETRYNTSKETQTPAFERAAAVSALFHYSVVVPTHLDEEELTIIGDFIIRNHGTAPLHHLIVCLRLSPPKTAVLSGKIVLPNSGRAEQEALISNSAESWTFTQENWREKVRQSGEYWLAPLYDAPLEPGEERRFSQFEITVPPSSNARSLTVDGFVYCAELPKGVPAANHIAIQW | not soluble
17 | MDLGIKGKKVIVTAASKGIGLAIAKRFLEEGAKVIISSNDESNLMKAYNKLKEIHSENVSYIKADLMNPHEVKSLVHEGYRKLGGLDVLAYVTGSPKPGNLFSLSDKDWMDAFNLLLLSAVVAVREAGQLMQSGGRIILSTSTTLRQPIDNLDLSNVVRLSLAGLIKVASRELGPKGILVNGVMPGWTKTERLLQIIRDRAIREGKSEDEVLKSIVADVPLGRAGEPEEIANVVLFLASNLSTYVTGALIPVDGGSIKGVF | not soluble
18 | GPRRTRTTFTSSQIAELEQHFLQGRYLTAPRLADLSAKLALGTAQVKIWFKNRRRRHKIQSDQHKDQS | soluble
19 | MELTTKLVGTCSALDRLYQSGSAKCLFPRNSRAGLEAVLLNTAGGVTGGDRLSFSAQVRAGTRLSVTTQACERAYRAQPGETGQVRNHLSVATGARMNWLPQETILYDGSSLDRRLSVEIEPGASLLMVEPLVFGRIEMGESLNDARFCDRIEITRRGRPIFLDATRLQGGIAAHLAKPFIANGAGAMALLVYLAENAEAVLPRLRQMLPECAGASLIGEDLLVMRVLAADSFLLRQSLLPALRLLNNNEIPRCWTILEHHHHHH | not soluble
20 | MSLKYVDEFREPEKAEALCREITKLSHQLEKPIKIMEVCGGHTHSIFKYGIEEILPQTIELIHGPGCPVCVMPKGRLDDAIAISQNHNVIFATFGDAMRVPGSKTSLLQARAQGADIRMVYSPLDSLQIAKDHPDREVVFFALGFETTAPSTGFTIVQAAAEEIHNFSMFSNHVLVIPALKALLDNPDLQLDGFVGPGHVSMVIGSDPYQFISQQYNKPIVVSGFEPLDILQSIWMLLQQIVENRCEVENQYNRIVQKSGNTVALQAINKVFAVRDSFDWRGLGDIPYSGLKIKPEYAQFDAELKFTIPNLKVADHKACKCGEILKGVLKPWECKVFGTACTPETPIGTCMVSSEGACAAYYKYGRLSTIAKRTITQKPKITQEPLPACGFSLDEGHHHHHH | not soluble
21 | MNLDLTAQKVRLSWKDILWGYGNKYLGWADVAAYARKMTLSDHDERVFKLSLINKSNILELKPVLEDLASEMRDYSPKNWLYVLLSDVFHRKEEFEDPLGEVEKIYADFDYPEEIESFVRYMPPKDGYIPSAHTYEENIARLYSHWEHYLNNGGGQG | not soluble
